Test results taken from publication PMC4961739, “Regulation of post-Golgi LH3 trafficking is essential for collagen homeostasis” (Nature Communications, 2016).

Molecular target: T1, His6-cMyc4-tagged VPS33B (human, UniProt Q9H267 1-617)
T1 construct: VPS33B, human, UniProt Q9H267; construct pUPE.02.13-VPS33B; also called pUPE.02.13-VPS33B; recombinant tagged VPS33B; source: HEK293 cells stably expressing Epstein-Barr virus Nuclear Antigen I, co-transfected with VIPAR; in lysate, then co-purified with VIPAR (Streptactin Sepharose, Superdex 200); not shown: His6-cMyc4, N-terminal, kept
T1 sequence (looked up): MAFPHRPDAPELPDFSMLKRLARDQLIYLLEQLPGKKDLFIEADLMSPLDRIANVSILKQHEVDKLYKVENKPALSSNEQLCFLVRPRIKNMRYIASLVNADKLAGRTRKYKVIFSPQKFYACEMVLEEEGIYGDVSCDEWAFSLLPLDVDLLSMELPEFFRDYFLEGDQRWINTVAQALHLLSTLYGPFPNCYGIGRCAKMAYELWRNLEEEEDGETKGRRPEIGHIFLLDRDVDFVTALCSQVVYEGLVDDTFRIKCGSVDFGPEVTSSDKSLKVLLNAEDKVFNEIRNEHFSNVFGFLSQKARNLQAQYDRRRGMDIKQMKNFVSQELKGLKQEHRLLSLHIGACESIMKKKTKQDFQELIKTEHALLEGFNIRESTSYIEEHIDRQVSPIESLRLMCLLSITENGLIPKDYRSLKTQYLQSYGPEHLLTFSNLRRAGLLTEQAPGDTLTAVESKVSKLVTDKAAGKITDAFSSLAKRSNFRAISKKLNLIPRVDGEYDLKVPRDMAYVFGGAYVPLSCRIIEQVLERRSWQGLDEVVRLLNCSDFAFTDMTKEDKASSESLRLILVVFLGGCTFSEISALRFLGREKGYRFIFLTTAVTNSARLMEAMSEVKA
Test: affinity purification with mass spectrometry; His6-StrepII3-VIPAR and His6-cMyc4-VPS33B coexpressed in HEK293 cells; soluble lysate (0.3% NP-40, NaCl to 300 mM) on Streptactin Sepharose, eluted with 2.5 mM desthiobiotin, Superdex 200; purified sample analysed by LC-MS/MS
Conditions: partners not purified

B1: His6-StrepII3-tagged VIPAR (natural protein, human, UniProt Q9H9C1 1-493, looked up)
chain: MNRTKGDEEEYWNSSKFKAFTFDDEDDELSQLKESKRAVNSLRDFVDDDDDDDLERVSWSGEPVGSISWSIRETAGNSGSTHEGREQLKSRNSFSSYAQLPKPTSTYSLSSFFRGRTRPGSFQSLSDALSDTPAKSYAPELGRPKGEYRDYSNDWSPSDTVRRLRKGKVCSLERFRSLQDKLQLLEEAVSMHDGNVITAVLIFLKRTLSKEILFRELEVRQVALRHLIHFLKEIGDQKLLLDLFRFLDRTEELALSHYREHLNIQDPDKRKEFLKTCVGLPFSAEDSAHIQDHYTLLERQIIIEANDRHLESAGQTEIFRKHPRKASILNMPLVTTLFYSCFYHYTEAEGTFSSPVNLKKTFKIPDKQYVLTALAARAKLRAWNDVDALFTTKNWLGYTKKRAPIGFHRVVEILHKNNAPVQILQEYVNLVEDVDTKLNLATKFKCHDVVIDTYRDLKDRQQLLAYRSKVDKGSAEEEKIDALLSSSQIRWKN
notes: VIPAR (VIPAS39), human, UniProt Q9H9C1; construct pUPE.02.09-VIPAR; also called pUPE.02.09-VIPAR; recombinant tagged VIPAR; source: HEK293 cells stably expressing Epstein-Barr virus Nuclear Antigen I, co-transfected with VPS33B; in lysate, then purified (Streptactin Sepharose, Superdex 200); not shown: His6-StrepII3, N-terminal, kept
**Q.** Does B1 bind?
**A.** Result: binds
